2 molecules from paper PMC9438803 (Life Science Alliance, 2021) can be followed below.

Series [1] has as its target T1, recombinant human Topoisomerase 2a lacking the unstructured C-terminal domain (1-1,217) (human, UniProt P11388 1-1217).
T1 construct: human Topoisomerase 2a residues 1-1,217; A legend on the cited structures calls Top2a a homodimer; also called Top2a ΔC; Top2aΔCTD; source: recombinant, purified
Kind of series: mass spectrometry of bands cut from the native PAGE; unshifted and shifted Top2a bands of the blue-native gel analysed by mass spectrometry. As to conditions: both partners purified.

In series [2] the target is dock II minimal (Homo sapiens, UniProt O95602 1081-1146). Kind of series: EMSA; up to 50x protein excess; no major DNA binding; EMSA: 100 fmol DNA, up to 50x protein, RT 30 min; buffer 1: 10 mM Tris pH 7.5, 50 mM NaCl, 1 mM MgCl2, 4% glycerol, 0.5 mM EDTA, 0.5 mM DTT; or buffer 2: 20 mM. The settings on record: protein: recombinant; tags: C-term His-MBP; label: 5'-Cy5 on strand 1; blunt. (In EMSA bound probe runs differently from free probe, usually more slowly.)

The target in series [3] is RPA49/RPA34 heterodimer full length (Homo sapiens, UniProt Q9GZS1;O15446 1-419;1-510). Kind of series: EMSA; EMSA: 100 fmol DNA, up to 50x protein, RT 30 min; buffer 1: 10 mM Tris pH 7.5, 50 mM NaCl, 1 mM MgCl2, 4% glycerol, 0.5 mM EDTA, 0.5 mM DTT; or buffer 2: 20 mM. As to conditions: protein: recombinant; tags: N-term 6xHis on RPA49; RPA34 untagged; copies: 1;1; label: 5'-Cy5 on strand 1; blunt.
RPA49/RPA34 heterodimer full length, sequence (Q9GZS1 whole entry, chain 1 of 2): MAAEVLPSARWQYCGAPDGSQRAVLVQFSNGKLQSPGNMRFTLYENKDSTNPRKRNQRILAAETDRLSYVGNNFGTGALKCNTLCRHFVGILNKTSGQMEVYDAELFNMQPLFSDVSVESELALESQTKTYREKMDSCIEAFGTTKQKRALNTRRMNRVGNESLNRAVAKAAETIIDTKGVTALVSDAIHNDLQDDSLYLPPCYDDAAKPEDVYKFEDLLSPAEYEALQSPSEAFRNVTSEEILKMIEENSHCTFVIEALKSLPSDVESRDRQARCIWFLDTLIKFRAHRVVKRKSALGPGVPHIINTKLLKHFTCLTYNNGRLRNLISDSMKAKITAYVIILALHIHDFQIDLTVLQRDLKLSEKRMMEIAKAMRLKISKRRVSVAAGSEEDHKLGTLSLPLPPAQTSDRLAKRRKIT
RPA49/RPA34 heterodimer full length, sequence (O15446 whole entry, chain 2 of 2): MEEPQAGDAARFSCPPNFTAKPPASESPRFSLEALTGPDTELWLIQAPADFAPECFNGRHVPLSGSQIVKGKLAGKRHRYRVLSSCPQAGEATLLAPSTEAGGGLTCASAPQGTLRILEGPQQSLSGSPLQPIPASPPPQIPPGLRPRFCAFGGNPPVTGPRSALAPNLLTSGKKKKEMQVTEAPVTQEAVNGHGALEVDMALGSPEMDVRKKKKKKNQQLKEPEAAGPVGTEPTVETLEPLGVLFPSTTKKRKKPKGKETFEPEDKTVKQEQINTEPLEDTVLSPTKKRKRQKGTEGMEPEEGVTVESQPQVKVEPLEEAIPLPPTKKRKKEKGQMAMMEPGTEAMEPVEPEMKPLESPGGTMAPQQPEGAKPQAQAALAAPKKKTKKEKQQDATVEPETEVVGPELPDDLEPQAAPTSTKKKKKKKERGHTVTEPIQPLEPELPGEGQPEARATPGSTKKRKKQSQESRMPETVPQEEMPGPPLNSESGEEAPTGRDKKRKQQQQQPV

T1 sequence (P11388 1-1217): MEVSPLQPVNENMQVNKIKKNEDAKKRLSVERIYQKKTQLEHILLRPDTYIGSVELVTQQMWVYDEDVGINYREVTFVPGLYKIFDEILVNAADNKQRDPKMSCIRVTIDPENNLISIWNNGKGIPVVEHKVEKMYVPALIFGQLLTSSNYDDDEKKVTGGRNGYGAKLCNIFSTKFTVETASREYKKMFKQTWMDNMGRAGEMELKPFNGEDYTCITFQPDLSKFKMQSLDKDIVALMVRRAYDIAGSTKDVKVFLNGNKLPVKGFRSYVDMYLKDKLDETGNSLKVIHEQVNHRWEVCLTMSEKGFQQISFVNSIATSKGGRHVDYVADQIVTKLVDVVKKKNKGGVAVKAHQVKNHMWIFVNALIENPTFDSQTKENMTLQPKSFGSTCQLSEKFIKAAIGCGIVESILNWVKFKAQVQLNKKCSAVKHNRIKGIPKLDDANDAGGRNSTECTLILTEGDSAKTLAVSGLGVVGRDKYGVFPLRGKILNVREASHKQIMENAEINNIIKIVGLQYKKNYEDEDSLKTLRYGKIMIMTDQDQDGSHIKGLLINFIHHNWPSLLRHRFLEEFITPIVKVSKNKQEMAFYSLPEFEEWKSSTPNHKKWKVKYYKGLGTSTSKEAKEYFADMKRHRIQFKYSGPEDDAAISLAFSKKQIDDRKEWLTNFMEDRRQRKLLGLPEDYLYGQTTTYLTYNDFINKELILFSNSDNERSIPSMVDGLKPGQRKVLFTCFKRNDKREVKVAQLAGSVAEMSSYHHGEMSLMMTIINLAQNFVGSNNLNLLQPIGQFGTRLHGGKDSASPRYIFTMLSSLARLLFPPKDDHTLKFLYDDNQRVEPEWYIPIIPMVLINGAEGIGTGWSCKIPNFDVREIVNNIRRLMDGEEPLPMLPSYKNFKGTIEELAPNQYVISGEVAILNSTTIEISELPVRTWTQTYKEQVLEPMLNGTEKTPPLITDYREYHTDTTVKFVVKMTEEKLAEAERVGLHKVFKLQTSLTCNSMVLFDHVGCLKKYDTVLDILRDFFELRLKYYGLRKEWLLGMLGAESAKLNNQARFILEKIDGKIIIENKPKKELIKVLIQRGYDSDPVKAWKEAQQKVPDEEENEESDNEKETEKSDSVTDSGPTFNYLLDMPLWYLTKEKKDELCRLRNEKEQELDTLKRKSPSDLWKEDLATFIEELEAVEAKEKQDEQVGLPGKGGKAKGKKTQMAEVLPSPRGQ

B1: human dock II domain, full-length fragment (RPA1 1060-1155) with C-terminal His-MBP-tag (domain or fragment, UniProt O95602 1060-1155, looked up)
chain: ADPKKALHHFRAIKKWQSKHPNTLLRRGAFLSYSQKIQEAVKALKLESENRNGRSPGTQEMLRMWYELDEESRRKYQKKAAACPDPSLSVWRPDIY
notes: human RPA1 residues 1060-1155, the dock II domain (HMG box-like foot insertion); The results call it MBP-dock II; the methods say that the His-MBP tag is C-terminal; also called full-length MBP-dock II; dock II-MBP fusion; source: E. coli BL21 (DE3) RIL, purified (Ni-NTA, Superdex 75); not shown: His, C-terminal, kept; MBP, C-terminal, kept
As to B1, the binding result in series [1] was “binds”.

B2: EMSA-DNA 40 bp (dsDNA)
DNA 1: CTGGAACAACACTCAACCCTATCTCGGTCTATTCTTTTGA
DNA 2: TCAAAAGAATAGACCGAGATAGGGTTGAGTGTTGTTCCAG
On to B2, for which the figures for the binding result in series [2] and in series [3] were “no binding” and “binds”, respectively.
